Several values for one entry are separate records, joined by “and”; a condition that tells them apart may be missing. Equal values may be shown once.

For orientation: Kd means the free concentration of one partner at which half of the binding sites on the other are occupied at equilibrium, for simple one-to-one binding. Read a low Kd as higher affinity. For orientation: stoichiometry N means the number of molecules, sites or subunits per partner or assembly.

Assay [1] concerns the target T1, C. elegans Hsp90 (CeHsp90), full-length (C. elegans, UniProt Q18688 1-702).
T1 construct: Hsp90/DAF-21 of C. elegans, full-length; also called Hsp90/DAF-21; nematode Hsp90; source: E. coli BL21-CodonPlus(DE3)-RIL, purified (Ni-NTA, Resource Q, gel filtration); not shown: His6, N-terminal, kept
The experiment in a line: AUC; sedimentation velocity with UV/VIS absorbance optics (OD280); PPH-5 titrated to a constant concentration of CeHsp90 (4 μM) or CeHsp90-MC (3.5 μM); global fit to sequential binding of a first and second PPH-5. As to conditions: both partners purified.

For assay [2], the target named is T2, CeHsp90-derived MEEVD-containing peptide AEEDASRMEEVD (C. elegans).
T2 peptide: AEEDASRMEEVD
Nature of the assay: cell-based or functional assay.

Assay [3] addresses T1, C. elegans Hsp90 (CeHsp90), full-length. Nature of the assay: cell-based or functional assay.

B1: protein phosphatase 5 from C. elegans (PPH-5) (enzyme, UniProt Q9NES8 1-496, looked up)
chain: MAATITDDIVATVLESIEEKSYEDEKEKAGMIKDEANQFFKDQVYDVAADLYSVAIEIHPTAVLYGNRAQAYLKKELYGSALEDADNAIAIDPSYVKGFYRRATANMALGRFKKALTDYQAVVKVCPNDKDARAKFDECSKIVRRQKFEAAISTDHDKKTVAETLDINAMAIEDSYDGPRLEDKITKEFVLQLIKTFKNQQKLHKKYAFKMLLEFYNYVKSLPTMVEITVPTGKKFTICGDVHGQFYDLCNIFEINGYPSETNPYLFNGDFVDRGSFSVETIFTMIGFKLLYPNHFFMSRGNHESDVMNKMYGFEGEVKAKYTQQMCDMFTETFCWLPLCHLINEKIFVCHGGLFKEDGVTLEDIRKTDRNRQPPDEGIMCDLLWSDPQPINGRSPSKRGVGCQFGPDVTSKWCETNGIEYVVRSHEVKPEGYEMHHNGQCFTVFSAPNYCDQMNNKGAFITITGDNLTPRFTPFDAVPHPKLPPMAYANSLFGFN
notes: protein phosphatase 5 (PPH-5) of C. elegans; also called the phosphatase; source: E. coli BL21-CodonPlus(DE3)-RIL, purified (Ni-NTA, Resource Q, gel filtration); not shown: His6, N-terminal, kept
As for B1, in assay [1], the Kd was ~1000 nM and 1000 to 3000 nM; the “stoichiometry N” value came to 2 PPH-5 per CeHsp90 dimer. In addition, the “pNPP turnover by PPH-5 in presence of 60 μM peptide …” value in assay [2] is ~6 fold. For the same molecule, in assay [3], the “kcat of PPH-5 towards the model peptide KRpTIRR (50 μM) with 3 μM CeHsp90” value amounted to 0.133 s⁻¹.

The record behind these values is paper PMC4655416, “The activity of protein phosphatase 5 towards native clients is modulated by the middle- and C-terminal domains of Hsp90” (Scientific Reports, 2015).
